For this assay, the target named is human VISTA (V-domain Ig Suppressor of T cell Activation) (human) (UniProt Q9H7M9). The assay is described as follows: Table 1 column 'Kd, M'; method not stated.

B1: VSTB63 (antibody, from a related filing, V domains shown)
VH: QVQLQESGPGLVKPSETLSLTCAVSGFSITSDFAWNWIRQPPGKGLEWIGYITYSGFTNYNPSLESRVTISVDTSKNQFSLKLSSVTAADTAVYYCARQEYGNYVWYFDVWGQGTLVTVSS
VL: DIVMTQTPLSLSVTPGQPASISCRASESVEYYGTSLLQWYLQKPGQPPQLLIYAASNVESGVPDRFSGSGSGTDFTLKISRVEAEDVGVYYCQQSRKVPWTFGQGTKLEIK
B1 showed a Kd of 0.83 nM. This lies in the sub-nanomolar range.

B2: VSTB54 (antibody, from a related filing, V domains shown)
VH: QVQLVQSGAEVKKPGASVKVSCKASGYNIKDTYMHWVRQAPGQGLEWMGRIDPTHGYVIYDPKFQGRVTMTRDTSTSTVYMELSSLRSEDTAVYYCARDRFDPYWFLDVWGQGTLVTVSS
VL: DIVMTQTPLSLSVTPGQPASISCRASESVEYYGTSLMQWYLQKPGQSPQLLIYDAFNVESGVPDRFSGSGSGTDFTLKISRVEAEDVGVYYCQQSRKVPWTFGQGTKLEIK
B2: the Kd turned out to be 0.0253 nM.

The values are drawn from patent US20190330349A1.
